Reference: patent US5985836A, “Alpha-1 proteinase inhibitor binding peptides” (Bayer Corporation, priority 1998, dated 1999)
Ends that are not written are not given here.

Legend:
[1] = target: T1, A1PI (Homo sapiens, UniProt P01009); test: A1PI binding on peptide-resin column, injection of 1 mg A1PI in equilibration buffer; settings: for % of Total A1PI Eluted by Fraction (Based on Absorbance at 280 nm), 1M NaCl / % of Total A1PI Eluted by Fraction (Based on Absorbance at 280 nm), 2% Acetic Acid / % of Total A1PI Eluted by Fraction (Based on Absorbance at 280 nm), Flowthrough: 1 mg A1PI; for Percent AlPI Eluted by Fraction, 1M NaCl / Percent AlPI Eluted by Fraction, 2% Acetic Acid / Percent AlPI Eluted by Fraction, Flowthrough: 1 mg AlPI
T1 construct: Human plasma is currently the only approved source of therapeutic AlPI
Procedure, shortened: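 Percent of total eluted A1PI per fraction (flowthrough, NaCl steps, 2% acetic acid) determined by A280 integration or immunonephelometry. Columns of peptide-derivatized A-Totda-Toyopearl resin (0.1 mmole/g) received 1 mg A1PI at 4 °C or 20 °C, flow 865 or 523 μl/min.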

[2] = target: T1, A1PI; test: Purification of A1PI from Effluent II+III on peptide column, A1PI mass balance; assay type: binding; settings: 1 ml Eff. II+III, 4° C.; for Mass A1PI per Eluate Fraction, 2% Acetic Acid / Mass A1PI per Eluate Fraction, Flowthrough / Mass A1PI per Eluate Fraction, 1M NaCl: * Below detection limit
Procedure, shortened: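 Feed: 1 ml Eff. II+III (20% EtOH, 20-25 mg/ml hSA, ~1 mg/ml A1PI). 10 min residence, then 865 μl/min; steps 1M NaCl / 3M NaCl / 2% acetic acid; 4° C. Mass balance per fraction.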

[3] = peptide density 6 μmol/g, 4° C.
[4] = peptide density 6 μmol/g, 20° C.
[5] = peptide density 17 μmol/g, 4° C.
[6] = peptide density 17 μmol/g, 20° C.
[7] = peptide density 25 μmol/g, 4° C.
[8] = peptide density 25 μmol/g, 20° C.
[9] = peptide density 39 μmol/g, 4° C.
[10] = peptide density 39 μmol/g, 20° C.
[11] = peptide density 54 μmol/g, 4° C.
[12] = peptide density 54 μmol/g, 20° C.
[13] = peptide density 58 μmol/g, 4° C.
[14] = peptide density 58 μmol/g, 20° C.
[15] = peptide density 99 μmol/g, 4° C.
[16] = peptide density 99 μmol/g, 20° C.
[17] = peptide density 135 μmol/g, 4° C.
[18] = peptide density 135 μmol/g, 20° C.
[19] = sequence truncations, 4° C., immunonephelometry
[20] = sequence truncations, 20° C., immunonephelometry
[21] = 1 mg A1PI in equilibration buffer, 4° C.
[22] = 1 mg A1PI in equilibration buffer, 20° C.
[23] = VIWLVR N-terminal point mutations, 4° C.
[24] = A1PI, * as in Tables 4, 5 (below detection limit)

T1 sequence (P01009 25-418): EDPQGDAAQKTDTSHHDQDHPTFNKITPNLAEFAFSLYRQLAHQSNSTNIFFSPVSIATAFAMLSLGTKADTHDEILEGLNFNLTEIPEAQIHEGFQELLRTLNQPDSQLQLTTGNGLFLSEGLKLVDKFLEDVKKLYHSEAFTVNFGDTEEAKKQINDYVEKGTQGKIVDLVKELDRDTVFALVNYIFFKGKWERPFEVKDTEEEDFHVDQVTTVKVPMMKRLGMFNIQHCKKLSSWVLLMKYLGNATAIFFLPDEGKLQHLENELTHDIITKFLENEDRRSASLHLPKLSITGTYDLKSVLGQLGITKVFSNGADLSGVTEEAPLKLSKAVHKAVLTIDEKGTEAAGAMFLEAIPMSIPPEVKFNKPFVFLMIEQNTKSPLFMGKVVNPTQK

Substance: VIFLVR
- % of Total A1PI Eluted by Fraction (Based on Absorbance at 280 nm), 1M NaCl ([1]; Trp position mutations, 4° C.): 3%
- % of Total A1PI Eluted by Fraction (Based on Absorbance at 280 nm), 2% Acetic Acid ([1]; Trp position mutations, 4° C.): 97%
- % of Total A1PI Eluted by Fraction (Based on Absorbance at 280 nm), Flowthrough ([1]; Trp position mutations, 4° C.): 0%
- % of Total A1PI Eluted by Fraction (Based on Absorbance at 280 nm), 1M NaCl ([1]; Trp position mutations, 20° C.): 8%
- % of Total A1PI Eluted by Fraction (Based on Absorbance at 280 nm), 2% Acetic Acid ([1]; Trp position mutations, 20° C.): 92%
- % of Total A1PI Eluted by Fraction (Based on Absorbance at 280 nm), Flowthrough ([1]; Trp position mutations, 20° C.): 0%
- % of Total A1PI Eluted by Fraction (Based on Absorbance at 280 nm), 1M NaCl ([1]; VIFLVR point mutations, 4° C.): 3%
- % of Total A1PI Eluted by Fraction (Based on Absorbance at 280 nm), 2% Acetic Acid ([1]; VIFLVR point mutations, 4° C.): 97%
- % of Total A1PI Eluted by Fraction (Based on Absorbance at 280 nm), Flowthrough ([1]; VIFLVR point mutations, 4° C.): 0%
- % of Total A1PI Eluted by Fraction (Based on Absorbance at 280 nm), 1M NaCl ([1]; VIFLVR point mutations, 20° C.): 8%
- % of Total A1PI Eluted by Fraction (Based on Absorbance at 280 nm), 2% Acetic Acid ([1]; VIFLVR point mutations, 20° C.): 92%
- % of Total A1PI Eluted by Fraction (Based on Absorbance at 280 nm), Flowthrough ([1]; VIFLVR point mutations, 20° C.): 0%
- Percent AlPI Eluted by Fraction, 1M NaCl [1, 3]: 21%
- Percent AlPI Eluted by Fraction, 2% Acetic Acid [1, 3]: 0%
- Percent AlPI Eluted by Fraction, Flowthrough [1, 3]: 87%
- Percent AlPI Eluted by Fraction, 1M NaCl [1, 4]: 13%
- Percent AlPI Eluted by Fraction, 2% Acetic Acid [1, 4]: 0%
- Percent AlPI Eluted by Fraction, Flowthrough [1, 4]: 79%
- Percent AlPI Eluted by Fraction, 1M NaCl [1, 5]: 10%
- Percent AlPI Eluted by Fraction, 2% Acetic Acid [1, 5]: 2%
- Percent AlPI Eluted by Fraction, Flowthrough [1, 5]: 80%
- Percent AlPI Eluted by Fraction, 1M NaCl [1, 6]: 18%
- Percent AlPI Eluted by Fraction, 2% Acetic Acid [1, 6]: 22%
- Percent AlPI Eluted by Fraction, Flowthrough [1, 6]: 68%
- Percent AlPI Eluted by Fraction, 1M NaCl [1, 7]: 1%
- Percent AlPI Eluted by Fraction, 2% Acetic Acid [1, 7]: 43%
- Percent AlPI Eluted by Fraction, Flowthrough [1, 7]: 57%
- Percent AlPI Eluted by Fraction, 1M NaCl [1, 8]: 0%
- Percent AlPI Eluted by Fraction, 2% Acetic Acid [1, 8]: 72%
- Percent AlPI Eluted by Fraction, Flowthrough [1, 8]: 28%
- Percent AlPI Eluted by Fraction, 1M NaCl [1, 9]: 4%
- Percent AlPI Eluted by Fraction, 2% Acetic Acid [1, 9]: 96%
- Percent AlPI Eluted by Fraction, Flowthrough [1, 9]: 0%
- Percent AlPI Eluted by Fraction, 1M NaCl [1, 10]: 0%
- Percent AlPI Eluted by Fraction, 2% Acetic Acid [1, 10]: 100%
- Percent AlPI Eluted by Fraction, Flowthrough [1, 10]: 0%
- Percent AlPI Eluted by Fraction, 1M NaCl [1, 11]: 0%
- Percent AlPI Eluted by Fraction, 2% Acetic Acid [1, 11]: 100%
- Percent AlPI Eluted by Fraction, Flowthrough [1, 11]: 0%
- Percent AlPI Eluted by Fraction, 1M NaCl [1, 12]: 0%
- Percent AlPI Eluted by Fraction, 2% Acetic Acid [1, 12]: 100%
- Percent AlPI Eluted by Fraction, Flowthrough [1, 12]: 0%
- Percent AlPI Eluted by Fraction, 1M NaCl [1, 13]: 4%
- Percent AlPI Eluted by Fraction, 2% Acetic Acid [1, 13]: 96%
- Percent AlPI Eluted by Fraction, Flowthrough [1, 13]: 0%
- Percent AlPI Eluted by Fraction, 1M NaCl [1, 14]: 0%
- Percent AlPI Eluted by Fraction, 2% Acetic Acid [1, 14]: 100%
- Percent AlPI Eluted by Fraction, Flowthrough [1, 14]: 0%
- Percent AlPI Eluted by Fraction, 1M NaCl [1, 15]: 0%
- Percent AlPI Eluted by Fraction, 2% Acetic Acid [1, 15]: 100%
- Percent AlPI Eluted by Fraction, Flowthrough [1, 15]: 0%
- Percent AlPI Eluted by Fraction, 1M NaCl [1, 16]: 0%
- Percent AlPI Eluted by Fraction, 2% Acetic Acid [1, 16]: 93%
- Percent AlPI Eluted by Fraction, Flowthrough [1, 16]: 7%
- Percent AlPI Eluted by Fraction, 1M NaCl [1, 17]: 0%
- Percent AlPI Eluted by Fraction, 2% Acetic Acid [1, 17]: 100%
- Percent AlPI Eluted by Fraction, Flowthrough [1, 17]: 0%
- Percent AlPI Eluted by Fraction, 1M NaCl [1, 18]: 0%
- Percent AlPI Eluted by Fraction, 2% Acetic Acid [1, 18]: 95%
- Percent AlPI Eluted by Fraction, Flowthrough [1, 18]: 5%
- Percent AlPI Eluted by Fraction, 1M NaCl ([1]; sequence order, 4° C.): 3%
- Percent AlPI Eluted by Fraction, 2% Acetic Acid ([1]; sequence order, 4° C.): 97%
- Percent AlPI Eluted by Fraction, Flowthrough ([1]; sequence order, 4° C.): 0%
- Percent AlPI Eluted by Fraction, 1M NaCl ([1]; sequence order, 20° C.): 7%
- Percent AlPI Eluted by Fraction, 2% Acetic Acid ([1]; sequence order, 20° C.): 93%
- Percent AlPI Eluted by Fraction, Flowthrough ([1]; sequence order, 20° C.): 0%
- Percent AlPI Eluted by Fraction, 1M NaCl [1, 19]: 3%
- Percent AlPI Eluted by Fraction, 2% Acetic Acid [1, 19]: 97%
- Percent AlPI Eluted by Fraction, Flowthrough [1, 19]: 0%
- Percent AlPI Eluted by Fraction, 1M NaCl [1, 20]: 7%
- Percent AlPI Eluted by Fraction, 2% Acetic Acid [1, 20]: 93%
- Percent AlPI Eluted by Fraction, Flowthrough [1, 20]: 0%
- Mass A1PI per Eluate Fraction, 2% Acetic Acid ([2]; Table 11): 0.57 mg
- Mass A1PI per Eluate Fraction, Flowthrough ([2]; Table 11): 0.13 mg
- Percent Eluted by Fraction, 1M NaCl ([2]; Table 11, A1PI): 0%
- Percent Eluted by Fraction, 2% Acetic Acid ([2]; Table 11, A1PI): 82%
- Percent Eluted by Fraction, Flowthrough ([2]; Table 11, A1PI): 18%
- Mass A1PI per Eluate Fraction, 1M NaCl ([2]; Table 13): 0.07 mg
- Mass A1PI per Eluate Fraction, 2% Acetic Acid ([2]; Table 13): 0.91 mg
- Mass A1PI per Eluate Fraction, Flowthrough ([2]; Table 13): 0.32 mg
- Percent Eluted by Fraction, 1M NaCl ([2]; Table 13, A1PI): 5%
- Percent Eluted by Fraction, 2% Acetic Acid ([2]; Table 13, A1PI): 70%
- Percent Eluted by Fraction, Flowthrough ([2]; Table 13, A1PI): 25%

Substance: VIWLVR
- Percent A1PI Eluted by Fraction Based on Absorbance at 280 nm, 1M NaCl [1, 21]: 25%
- Percent A1PI Eluted by Fraction Based on Absorbance at 280 nm, 2% Acetic Acid [1, 21]: 30%
- Percent A1PI Eluted by Fraction Based on Absorbance at 280 nm, Flowthrough [1, 21]: 45%
- Percent A1PI Eluted by Fraction, 1M NaCl [1, 22]: 26%
- Percent A1PI Eluted by Fraction, 2% Acetic Acid [1, 22]: 66%
- Percent A1PI Eluted by Fraction, Flowthrough [1, 22]: 8%
- % of Total A1PI Eluted by Fraction (Based on Absorbance at 280 nm), 1M NaCl ([1]; Trp position mutations, 4° C.): 25%
- % of Total A1PI Eluted by Fraction (Based on Absorbance at 280 nm), 2% Acetic Acid ([1]; Trp position mutations, 4° C.): 30%
- % of Total A1PI Eluted by Fraction (Based on Absorbance at 280 nm), Flowthrough ([1]; Trp position mutations, 4° C.): 45%
- % of Total A1PI Eluted by Fraction (Based on Absorbance at 280 nm), 1M NaCl ([1]; Trp position mutations, 20° C.): 26%
- % of Total A1PI Eluted by Fraction (Based on Absorbance at 280 nm), 2% Acetic Acid ([1]; Trp position mutations, 20° C.): 66%
- % of Total A1PI Eluted by Fraction (Based on Absorbance at 280 nm), Flowthrough ([1]; Trp position mutations, 20° C.): 8%
- % of Total A1PI Eluted by Fraction (Based on Absorbance at 280 nm), 1M NaCl [1, 23]: 25%
- % of Total A1PI Eluted by Fraction (Based on Absorbance at 280 nm), 2% Acetic Acid [1, 23]: 30%
- % of Total A1PI Eluted by Fraction (Based on Absorbance at 280 nm), Flowthrough [1, 23]: 45%
- Percent Eluted by Fraction, 1M NaCl ([2]; A1PI): 9%
- Percent Eluted by Fraction, 2% Acetic Acid ([2]; A1PI): 43%
- Percent Eluted by Fraction, 3M NaCl ([2]; A1PI): 0%
- Percent Eluted by Fraction, Flow ([2]; A1PI): 48%
- Mass Protein per Eluate Fraction, 1M NaCl [2, 24]: 0.10 mg
- Mass Protein per Eluate Fraction, 2% Acetic Acid [2, 24]: 0.51 mg
- Mass Protein per Eluate Fraction, Flow [2, 24]: 0.58 mg
- Mass A1PI per Eluate Fraction, 1M NaCl ([2]; Table 11): 0.10 mg
- Mass A1PI per Eluate Fraction, 2% Acetic Acid ([2]; Table 11): 0.51 mg
- Mass A1PI per Eluate Fraction, Flowthrough ([2]; Table 11): 0.58 mg
- Percent Eluted by Fraction, 1M NaCl ([2]; Table 11, A1PI): 9%
- Percent Eluted by Fraction, 2% Acetic Acid ([2]; Table 11, A1PI): 43%
- Percent Eluted by Fraction, Flowthrough ([2]; Table 11, A1PI): 48%
